Data from the Human Domainome abundance scans (Beltran et al. 2025).

B1: Protein piccolo, residues 1058 to 1114; numbered along this chain, Q9Y6V0 (parent)
chain: TCPLCKTELNIGSKDPPNFNTCTECKNQVCNLCGFNPTPHLTEIQEWLCLNCQTQRA
B2: CD2-associated protein, residues 271 to 331; numbered along this chain, Q9Y5K6 (parent)
chain: KEYCRTLFAYEGTNEDELTFKEGEIIHLISKETGEAGWWRGELNGKEGVFPDNFAVQINEL

Variants of: B1
Experiment: abundance fitness (aPCA) (normalised: wild type 0, dead -1); higher = more abundant; growth selection in yeast, the domain comes from the species named
Conditions: Homo sapiens

Abundance fitness: each site, then its substitutions
T54: I -0.37 | Y -0.369 | W -0.441 | E 0.231 | P 0.156 | A 0.049 | M -0.602 | Q 0.214 | G 0.046 | N 0.296 | C -0.182 | K 0.196 | V -0.198 | L -0.531 | H -0.076 | F -0.79
C52: W -1.14 | M -0.981 | H -0.273 | N -0.876 | R -0.701 | T -0.842 | S -0.709 | Q -0.841 | G -0.727 | Y -0.841 | P -1.2 | K -0.801 | F -1.06
Q53: G -0.016 | C -0.464 | N 0.118 | T -0.067 | R 0.099 | E -0.074 | K 0.115 | I -0.25 | Y -0.23 | L -0.386 | D 0.099 | F -0.275 | V -0.256 | S 0.028 | A -0.249 | W -0.383 | M -0.36

Variants of: B2
Experiment: as above
Conditions: Homo sapiens

Abundance fitness: each site, then its substitutions
Y3: V -0.537 | H -0.278 | F 0.001 | E -0.567 | K -0.748 | T -0.608 | L -0.131 | P -0.75 | Q -0.775 | D -0.555 | M -0.372 | W -0.661 | A -0.369 | N -0.292 | G -0.611 | S -0.26
R5: F -0.487 | K 0.182 | P -0.978 | E -0.154 | L -0.383 | I -0.527 | S -0.49 | A -0.426 | H -0.461 | W -0.689 | Q -0.37 | V -0.439 | D -0.764 | T -0.34 | G -0.868 | N -0.601
C4: M -0.23 | G -0.707 | A -0.591 | I -0.113 | D -1.04
